Reference: paper PMC7473174 (Cell reports, 2020)

Biological target: GST-(TEV)-ZGRF1-(His)6 (human, UniProt Q86YA3 1-2104)
Assay: pull-down

GST-(TEV)-ZGRF1-(His)6, sequence (Q86YA3 whole entry): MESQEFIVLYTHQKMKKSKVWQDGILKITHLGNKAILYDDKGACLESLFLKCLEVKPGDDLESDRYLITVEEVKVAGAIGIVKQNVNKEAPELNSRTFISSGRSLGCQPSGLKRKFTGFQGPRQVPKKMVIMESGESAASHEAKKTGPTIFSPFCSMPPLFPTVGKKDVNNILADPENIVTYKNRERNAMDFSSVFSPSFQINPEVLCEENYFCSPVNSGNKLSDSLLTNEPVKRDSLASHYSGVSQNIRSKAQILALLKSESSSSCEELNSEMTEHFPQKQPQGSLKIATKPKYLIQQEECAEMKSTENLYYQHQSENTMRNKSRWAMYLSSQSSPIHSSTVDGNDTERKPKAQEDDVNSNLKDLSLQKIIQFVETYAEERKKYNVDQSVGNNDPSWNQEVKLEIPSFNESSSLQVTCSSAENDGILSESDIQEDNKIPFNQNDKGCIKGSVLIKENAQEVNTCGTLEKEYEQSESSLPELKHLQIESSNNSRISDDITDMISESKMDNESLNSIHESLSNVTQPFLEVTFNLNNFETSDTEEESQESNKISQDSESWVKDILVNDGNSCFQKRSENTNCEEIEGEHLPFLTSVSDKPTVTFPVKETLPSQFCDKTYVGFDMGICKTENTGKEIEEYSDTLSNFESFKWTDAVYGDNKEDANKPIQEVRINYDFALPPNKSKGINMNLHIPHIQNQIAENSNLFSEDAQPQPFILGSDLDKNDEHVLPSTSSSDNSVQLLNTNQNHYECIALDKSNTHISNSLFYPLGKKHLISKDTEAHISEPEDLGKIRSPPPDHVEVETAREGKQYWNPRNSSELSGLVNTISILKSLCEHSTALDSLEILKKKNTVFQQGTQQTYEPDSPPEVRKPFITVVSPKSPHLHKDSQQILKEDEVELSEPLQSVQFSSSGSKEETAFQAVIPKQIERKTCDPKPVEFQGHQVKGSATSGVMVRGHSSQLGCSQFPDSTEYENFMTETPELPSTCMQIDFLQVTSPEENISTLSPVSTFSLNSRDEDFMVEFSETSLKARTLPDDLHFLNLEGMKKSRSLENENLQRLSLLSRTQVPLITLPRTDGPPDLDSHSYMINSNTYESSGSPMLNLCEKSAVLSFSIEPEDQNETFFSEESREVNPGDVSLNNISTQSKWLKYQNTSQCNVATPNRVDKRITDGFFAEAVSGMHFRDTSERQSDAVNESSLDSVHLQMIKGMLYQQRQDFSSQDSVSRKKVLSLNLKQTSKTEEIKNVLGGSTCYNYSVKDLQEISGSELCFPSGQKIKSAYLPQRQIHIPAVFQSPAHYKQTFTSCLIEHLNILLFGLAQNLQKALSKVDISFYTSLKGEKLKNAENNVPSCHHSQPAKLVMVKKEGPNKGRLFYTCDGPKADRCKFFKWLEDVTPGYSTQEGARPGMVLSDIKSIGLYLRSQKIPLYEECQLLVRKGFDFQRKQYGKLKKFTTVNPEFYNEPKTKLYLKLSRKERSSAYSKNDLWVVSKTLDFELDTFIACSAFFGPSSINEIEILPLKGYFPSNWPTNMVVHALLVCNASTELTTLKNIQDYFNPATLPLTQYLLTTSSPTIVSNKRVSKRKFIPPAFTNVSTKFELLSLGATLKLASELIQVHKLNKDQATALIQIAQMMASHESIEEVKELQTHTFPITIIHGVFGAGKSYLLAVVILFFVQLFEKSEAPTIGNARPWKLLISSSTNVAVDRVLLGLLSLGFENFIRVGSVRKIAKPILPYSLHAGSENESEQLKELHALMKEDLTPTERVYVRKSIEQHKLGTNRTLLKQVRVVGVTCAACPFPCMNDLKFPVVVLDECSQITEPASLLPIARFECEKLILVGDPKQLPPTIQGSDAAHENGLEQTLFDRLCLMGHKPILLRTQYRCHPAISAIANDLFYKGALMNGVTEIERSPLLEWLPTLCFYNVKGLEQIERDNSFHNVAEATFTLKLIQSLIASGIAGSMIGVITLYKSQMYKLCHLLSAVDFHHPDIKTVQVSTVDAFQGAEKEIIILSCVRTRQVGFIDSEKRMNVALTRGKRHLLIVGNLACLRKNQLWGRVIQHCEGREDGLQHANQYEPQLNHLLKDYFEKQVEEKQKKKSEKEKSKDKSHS

B1: human RAD51 (natural protein, UniProt Q06609 1-339, looked up)
chain: MAMQMQLEANADTSVEEESFGPQPISRLEQCGINANDVKKLEEAGFHTVEAVAYAPKKELINIKGISEAKADKILAEAAKLVPMGFTTATEFHQRRSEIIQITTGSKELDKLLQGGIETGSITEMFGEFRTGKTQICHTLAVTCQLPIDRGGGEGKAMYIDTEGTFRPERLLAVAERYGLSGSDVLDNVAYARAFNTDHQTQLLYQASAMMVESRYALLIVDSATALYRTDYSGRGELSARQMHLARFLRMLLRLADEFGVAVVITNQVVAQVDGAAMFAADPKKPIGGNIIAHASTTRLYLRKGRGETRICKIYDSPCLPEAEAMFAINADGVGDAKD
binding result: binds
